Patent US20250382384A1

Legend:
[1] = target: MUC1 on normal activated human T cells (human) (UniProt P15941); assay: FACS on PHA-L-activated human PBMC, live αβTCR+ cells; gating scheme, donor not given
[2] = target: MUC1 on normal activated human T cells (human) (UniProt P15941); assay: FACS on PHA-L-activated human PBMC, live αβTCR+ cells, donor 191180405C
[3] = target: MUC1 on normal activated human T cells (human) (UniProt P15941); assay: FACS on PHA-L-activated human PBMC, live αβTCR+ cells, donor 3011029
[4] = target: MUC1 on normal activated human T cells (human) (UniProt P15941); assay: FACS on PHA-L-activated human PBMC, live αβTCR+ cells, donor 3009223
[5] = target: MUC1 on normal activated human T cells (human) (UniProt P15941); assay: FACS on PHA-L-activated human PBMC, live αβTCR+ cells, donor 190980805C

MUC1 on normal activated human T cells (human), sequence (P15941 24-1255): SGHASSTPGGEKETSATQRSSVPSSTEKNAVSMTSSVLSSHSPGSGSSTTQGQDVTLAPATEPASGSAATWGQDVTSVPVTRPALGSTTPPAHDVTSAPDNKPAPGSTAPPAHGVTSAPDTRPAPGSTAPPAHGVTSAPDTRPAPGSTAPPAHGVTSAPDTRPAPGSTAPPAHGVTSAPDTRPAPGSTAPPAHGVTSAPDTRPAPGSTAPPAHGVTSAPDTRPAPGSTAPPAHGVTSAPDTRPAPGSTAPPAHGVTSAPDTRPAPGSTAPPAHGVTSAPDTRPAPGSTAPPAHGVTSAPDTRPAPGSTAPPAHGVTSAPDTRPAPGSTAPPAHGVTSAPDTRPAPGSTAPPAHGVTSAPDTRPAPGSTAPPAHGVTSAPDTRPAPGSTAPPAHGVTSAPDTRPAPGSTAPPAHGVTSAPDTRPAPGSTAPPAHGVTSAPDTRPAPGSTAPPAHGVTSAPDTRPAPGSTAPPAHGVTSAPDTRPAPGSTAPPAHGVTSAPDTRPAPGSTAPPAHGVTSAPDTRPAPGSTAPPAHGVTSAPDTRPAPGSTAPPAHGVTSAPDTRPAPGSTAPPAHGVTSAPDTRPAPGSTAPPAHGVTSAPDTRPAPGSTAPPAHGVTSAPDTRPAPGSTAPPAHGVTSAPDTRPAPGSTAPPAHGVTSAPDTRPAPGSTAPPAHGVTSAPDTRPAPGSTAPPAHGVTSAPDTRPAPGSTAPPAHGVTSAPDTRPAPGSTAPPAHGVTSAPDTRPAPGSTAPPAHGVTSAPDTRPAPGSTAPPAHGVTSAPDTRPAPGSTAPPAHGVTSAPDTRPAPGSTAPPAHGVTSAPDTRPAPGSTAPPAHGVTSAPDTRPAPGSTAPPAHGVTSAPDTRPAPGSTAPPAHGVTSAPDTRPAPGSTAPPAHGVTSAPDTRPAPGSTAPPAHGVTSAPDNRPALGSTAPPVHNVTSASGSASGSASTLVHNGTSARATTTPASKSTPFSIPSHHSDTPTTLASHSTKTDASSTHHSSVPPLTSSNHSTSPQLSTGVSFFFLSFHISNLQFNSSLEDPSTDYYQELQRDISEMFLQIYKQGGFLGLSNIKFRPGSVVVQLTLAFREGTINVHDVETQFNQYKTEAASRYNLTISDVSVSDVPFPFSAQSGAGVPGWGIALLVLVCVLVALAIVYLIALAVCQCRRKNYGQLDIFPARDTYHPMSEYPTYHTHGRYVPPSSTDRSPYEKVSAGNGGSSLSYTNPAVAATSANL

Substance	percent of αβTCR+ T cells in the dashed MUC1+ box (antibody-bound T cells) [1] [%]	percent of αβTCR+ T cells in the dashed MUC1+ box (antibody-bound T cells) [2] [%]	percent of αβTCR+ T cells in the dashed MUC1+ box (antibody-bound T cells) [3] [%]	percent of αβTCR+ T cells in the dashed MUC1+ box (antibody-bound T cells) [4] [%]	percent of αβTCR+ T cells in the dashed MUC1+ box (antibody-bound T cells) [5] [%]
HMFG1 (antibody)	28.1	28.1	23.2	10	28.2
Isotype (antibody)	0.29	0.29	0.36	0.05	0.15
